Source: the supplement of paper PMC9112550, “Optimization of the antimicrobial peptide Bac7 by deep mutational scanning” (BMC Biology, 2022)

These sequences were tested on Escherichia coli TOP10 (assay: shrunken log2 fold change of peptide-encoding DNA abundance (4.5 h post-induction vs induction); higher = less antimicrobial activity (less host growth inhibition)). Conditions: time post-induction: 4.5 h; library: site-saturation at positions 5, 18, 19, 20.
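Note: peptides expressed intracellularly from a pBAD plasmid library in pooled LB shake-flask culture, induced with 0.3% L-arabinose, DNA abundance read by NGS, three biological replicates, DESeq2 with apeglm shrinkage.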

Question: For RRIRDRPPRLPRPRPRPENCPRP, which “shrunken log2 fold change” value is on record?
Answer: -0.0102

Question: With RRIRDRPPRLPRPRPRPEPKPRP as the sequence, how does the “shrunken log2 fold change” value read?
Answer: 1.4

Question: RRIRDRPPRLPRPRPRPEQTPRP was tested. Which “shrunken log2 fold change” value did it give?
Answer: 0.0162

Question: How did the “shrunken log2 fold change” value turn out when RRIRDRPPRLPRPRPRPERHPRP was run?
Answer: 1.06

Question: For RRIRDRPPRLPRPRPRPERPPRP, which “shrunken log2 fold change” value is on record?
Answer: 0.0268

Question: Which “shrunken log2 fold change” value does the source give for RRIRDRPPRLPRPRPRPERVPRP here?
Answer: 0.388

Question: For RRIRDRPPRLPRPRPRPETTPRP, which “shrunken log2 fold change” value is on record?
Answer: 0.0986

Question: RRIRDRPPRLPRPRPRPEVCPRP was tested. Which “shrunken log2 fold change” value did it give?
Answer: 0.0705

Question: For RRIRDRPPRLPRPRPRPEVTPRP, which “shrunken log2 fold change” value is on record?
Answer: -0.000921

Question: RRIRDRPPRLPRPRPRPEVVPRP was tested. Which “shrunken log2 fold change” value did it give?
Answer: -0.00213

Question: Which “shrunken log2 fold change” value does the source give for RRIRDRPPRLPRPRPRPEWFPRP here?
Answer: 0.257

Question: For RRIRDRPPRLPRPRPRPEWVPRP, which “shrunken log2 fold change” value is on record?
Answer: -0.0272

Question: How did the “shrunken log2 fold change” value turn out when RRIRDRPPRLPRPRPRPEYCPRP was run?
Answer: -0.0172

Question: Which “shrunken log2 fold change” value does the source give for RRIRDRPPRLPRPRPRPFARPRP here?
Answer: 0.579

Question: For RRIRDRPPRLPRPRPRPFCKPRP, which “shrunken log2 fold change” value is on record?
Answer: -0.164

Question: RRIRDRPPRLPRPRPRPFCLPRP was tested. Which “shrunken log2 fold change” value did it give?
Answer: 0.0132

Question: Which “shrunken log2 fold change” value does the source give for RRIRDRPPRLPRPRPRPFCNPRP here?
Answer: -0.0411

Question: Which “shrunken log2 fold change” value does the source give for RRIRDRPPRLPRPRPRPFDYPRP here?
Answer: -0.224

Question: How did the “shrunken log2 fold change” value turn out when RRIRDRPPRLPRPRPRPFEAPRP was run?
Answer: 0.277

Question: Which “shrunken log2 fold change” value does the source give for RRIRDRPPRLPRPRPRPFGGPRP here?
Answer: -0.0275

Question: RRIRDRPPRLPRPRPRPFGSPRP was tested. Which “shrunken log2 fold change” value did it give?
Answer: 0.0468

Question: With RRIRDRPPRLPRPRPRPFHAPRP as the sequence, how does the “shrunken log2 fold change” value read?
Answer: -0.108

Question: With RRIRDRPPRLPRPRPRPFHWPRP as the sequence, how does the “shrunken log2 fold change” value read?
Answer: -0.0944

Question: With RRIRDRPPRLPRPRPRPFKIPRP as the sequence, how does the “shrunken log2 fold change” value read?
Answer: -0.249

Question: With RRIRDRPPRLPRPRPRPFMPPRP as the sequence, how does the “shrunken log2 fold change” value read?
Answer: -0.124

Question: How did the “shrunken log2 fold change” value turn out when RRIRDRPPRLPRPRPRPFMTPRP was run?
Answer: -0.185

Question: How did the “shrunken log2 fold change” value turn out when RRIRDRPPRLPRPRPRPFNYPRP was run?
Answer: -0.048

Question: With RRIRDRPPRLPRPRPRPFQFPRP as the sequence, how does the “shrunken log2 fold change” value read?
Answer: -0.324

Question: For RRIRDRPPRLPRPRPRPFQMPRP, which “shrunken log2 fold change” value is on record?
Answer: -0.57

Question: RRIRDRPPRLPRPRPRPFQVPRP was tested. Which “shrunken log2 fold change” value did it give?
Answer: -0.609

Question: RRIRDRPPRLPRPRPRPFRDPRP was tested. Which “shrunken log2 fold change” value did it give?
Answer: -0.00232

Question: Which “shrunken log2 fold change” value does the source give for RRIRDRPPRLPRPRPRPFRFPRP here?
Answer: -0.0342

Question: Which “shrunken log2 fold change” value does the source give for RRIRDRPPRLPRPRPRPFRHPRP here?
Answer: -0.125

Question: For RRIRDRPPRLPRPRPRPFRTPRP, which “shrunken log2 fold change” value is on record?
Answer: -0.0508

Question: With RRIRDRPPRLPRPRPRPFRWPRP as the sequence, how does the “shrunken log2 fold change” value read?
Answer: 0.317

Question: For RRIRDRPPRLPRPRPRPFSAPRP, which “shrunken log2 fold change” value is on record?
Answer: -0.36

Question: For RRIRDRPPRLPRPRPRPFSDPRP, which “shrunken log2 fold change” value is on record?
Answer: -0.016

Question: RRIRDRPPRLPRPRPRPFSEPRP was tested. Which “shrunken log2 fold change” value did it give?
Answer: -0.0447

Question: Which “shrunken log2 fold change” value does the source give for RRIRDRPPRLPRPRPRPFSFPRP here?
Answer: -0.763

Question: Which “shrunken log2 fold change” value does the source give for RRIRDRPPRLPRPRPRPFSKPRP here?
Answer: -0.488

Question: RRIRDRPPRLPRPRPRPFSNPRP was tested. Which “shrunken log2 fold change” value did it give?
Answer: -0.0771

Question: With RRIRDRPPRLPRPRPRPFTCPRP as the sequence, how does the “shrunken log2 fold change” value read?
Answer: -0.00884

Question: With RRIRDRPPRLPRPRPRPFVMPRP as the sequence, how does the “shrunken log2 fold change” value read?
Answer: 0.0243

Question: How did the “shrunken log2 fold change” value turn out when RRIRDRPPRLPRPRPRPFWMPRP was run?
Answer: 0.0871

Question: For RRIRDRPPRLPRPRPRPFWNPRP, which “shrunken log2 fold change” value is on record?
Answer: -0.28

Question: For RRIRDRPPRLPRPRPRPFYCPRP, which “shrunken log2 fold change” value is on record?
Answer: -0.0803

Question: With RRIRDRPPRLPRPRPRPGACPRP as the sequence, how does the “shrunken log2 fold change” value read?
Answer: 0.23

Question: RRIRDRPPRLPRPRPRPGCKPRP was tested. Which “shrunken log2 fold change” value did it give?
Answer: 0.0398

Question: With RRIRDRPPRLPRPRPRPGCSPRP as the sequence, how does the “shrunken log2 fold change” value read?
Answer: 0.278

Question: For RRIRDRPPRLPRPRPRPGDFPRP, which “shrunken log2 fold change” value is on record?
Answer: -0.017

Question: Which “shrunken log2 fold change” value does the source give for RRIRDRPPRLPRPRPRPGDMPRP here?
Answer: 0.164

Question: For RRIRDRPPRLPRPRPRPGEHPRP, which “shrunken log2 fold change” value is on record?
Answer: 0.0372

Question: For RRIRDRPPRLPRPRPRPGGEPRP, which “shrunken log2 fold change” value is on record?
Answer: 1.41

Question: For RRIRDRPPRLPRPRPRPGGHPRP, which “shrunken log2 fold change” value is on record?
Answer: 0.188

Question: For RRIRDRPPRLPRPRPRPGGPPRP, which “shrunken log2 fold change” value is on record?
Answer: 0.247

Question: Which “shrunken log2 fold change” value does the source give for RRIRDRPPRLPRPRPRPGIAPRP here?
Answer: 0.37

Question: How did the “shrunken log2 fold change” value turn out when RRIRDRPPRLPRPRPRPGIIPRP was run?
Answer: -0.171

Question: With RRIRDRPPRLPRPRPRPGIRPRP as the sequence, how does the “shrunken log2 fold change” value read?
Answer: -0.174

Question: RRIRDRPPRLPRPRPRPGIWPRP was tested. Which “shrunken log2 fold change” value did it give?
Answer: 0.252

Question: How did the “shrunken log2 fold change” value turn out when RRIRDRPPRLPRPRPRPGKAPRP was run?
Answer: 0.00543

Question: Which “shrunken log2 fold change” value does the source give for RRIRDRPPRLPRPRPRPGKKPRP here?
Answer: -0.00968

Question: With RRIRDRPPRLPRPRPRPGKLPRP as the sequence, how does the “shrunken log2 fold change” value read?
Answer: 0.0495

Question: With RRIRDRPPRLPRPRPRPGKYPRP as the sequence, how does the “shrunken log2 fold change” value read?
Answer: -0.124

Question: RRIRDRPPRLPRPRPRPGMNPRP was tested. Which “shrunken log2 fold change” value did it give?
Answer: 0.164

Question: How did the “shrunken log2 fold change” value turn out when RRIRDRPPRLPRPRPRPGNFPRP was run?
Answer: -0.0885

Question: With RRIRDRPPRLPRPRPRPGNGPRP as the sequence, how does the “shrunken log2 fold change” value read?
Answer: 0.12

Question: With RRIRDRPPRLPRPRPRPGPHPRP as the sequence, how does the “shrunken log2 fold change” value read?
Answer: 0.132

Question: Which “shrunken log2 fold change” value does the source give for RRIRDRPPRLPRPRPRPGPNPRP here?
Answer: 0.0518

Question: With RRIRDRPPRLPRPRPRPGQHPRP as the sequence, how does the “shrunken log2 fold change” value read?
Answer: -0.121

Question: RRIRDRPPRLPRPRPRPGVWPRP was tested. Which “shrunken log2 fold change” value did it give?
Answer: 0.886

Question: RRIRDRPPRLPRPRPRPGWAPRP was tested. Which “shrunken log2 fold change” value did it give?
Answer: 0.718

Question: How did the “shrunken log2 fold change” value turn out when RRIRDRPPRLPRPRPRPGYFPRP was run?
Answer: -1.25

Question: How did the “shrunken log2 fold change” value turn out when RRIRDRPPRLPRPRPRPGYMPRP was run?
Answer: -0.649

Question: For RRIRDRPPRLPRPRPRPHADPRP, which “shrunken log2 fold change” value is on record?
Answer: -0.0841

Question: Which “shrunken log2 fold change” value does the source give for RRIRDRPPRLPRPRPRPHEHPRP here?
Answer: 0.00488
